The values below come from patent US20240150422A1.

For the experiment, the target named is IL-12 receptor on HEK-Blue IL-12 cells (InvivoGen) (human) (UniProt P42701). The experiment in a line: cell-based or functional assay.
Sequence of IL-12 receptor on HEK-Blue IL-12 cells (InvivoGen) (human) (chain, as listed by the source limits assumed, chain 2 of 2, other chains not shown): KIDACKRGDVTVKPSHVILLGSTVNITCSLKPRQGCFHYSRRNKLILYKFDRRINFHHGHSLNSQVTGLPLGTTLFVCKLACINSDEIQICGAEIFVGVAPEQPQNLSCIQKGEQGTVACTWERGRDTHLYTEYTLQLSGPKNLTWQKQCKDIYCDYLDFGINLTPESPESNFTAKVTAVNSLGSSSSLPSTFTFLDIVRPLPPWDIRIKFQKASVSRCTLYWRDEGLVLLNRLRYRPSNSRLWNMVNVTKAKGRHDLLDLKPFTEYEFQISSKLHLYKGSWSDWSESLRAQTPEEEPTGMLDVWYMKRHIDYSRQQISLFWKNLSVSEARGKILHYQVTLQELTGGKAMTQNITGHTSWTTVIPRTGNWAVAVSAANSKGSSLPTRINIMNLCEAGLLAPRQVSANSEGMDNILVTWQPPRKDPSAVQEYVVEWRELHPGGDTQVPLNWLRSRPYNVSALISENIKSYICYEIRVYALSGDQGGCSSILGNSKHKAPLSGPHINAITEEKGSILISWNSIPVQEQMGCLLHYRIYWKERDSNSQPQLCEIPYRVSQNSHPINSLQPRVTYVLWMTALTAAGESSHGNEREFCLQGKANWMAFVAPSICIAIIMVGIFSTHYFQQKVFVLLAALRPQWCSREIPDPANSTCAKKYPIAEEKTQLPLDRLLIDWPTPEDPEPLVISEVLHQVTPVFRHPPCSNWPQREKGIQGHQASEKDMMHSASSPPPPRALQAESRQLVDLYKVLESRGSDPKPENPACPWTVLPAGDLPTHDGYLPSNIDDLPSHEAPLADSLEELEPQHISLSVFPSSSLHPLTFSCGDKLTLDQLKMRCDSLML

“IL-12 Fc double mutant Y40A/D126A (format of Example 1) (from UniProt P29459 23-219; P29460 23-328) (Fc fusion)”: the HEK-Blue IL-12 reporter assay, fold reduction in potency (fold (vs IL-12 Fc w.t.)) was 38.

Regarding “IL-12 Fc double mutant Y40A/K168A (Example 7) (from UniProt P29459 23-219; P29460 23-328) (Fc fusion)”, the HEK-Blue IL-12 reporter assay, fold reduction in EC50 value (fold (vs wild-type)) was 67.

With “IL-12 Fc double mutant Y40A/K170A (Example 7) (from UniProt P29459 23-219; P29460 23-328) (Fc fusion)”, the HEK-Blue IL-12 reporter assay, fold reduction in EC50 value (fold (vs wild-type)) came out at 6540.

Substance “IL-12 Fc double mutant Y40A/P127A (format of Example 1) (from UniProt P29459 23-219; P29460 23-328) (Fc fusion)” displayed an HEK-Blue IL-12 reporter assay, fold reduction in potency (fold (vs IL-12 Fc w.t.)) of 40.

The substance “IL-12 Fc double mutant Y40A/R129A (Example 7) (from UniProt P29459 23-219; P29460 23-328) (Fc fusion)” came in with an HEK-Blue IL-12 reporter assay, fold reduction in EC50 value (fold (vs wild-type)) of 44.

“IL-12 Fc quadruple mutant Y40A/T43A/D126A/P127A (format of Example 1) (from UniProt P29459 23-219; P29460 23-328) (Fc fusion)” had an HEK-Blue IL-12 reporter assay, fold reduction in potency (fold (vs IL-12 Fc w.t.)) of 451.

For “IL-12 Fc triple mutant Y40A/D126A/P127A (format of Example 1) (from UniProt P29459 23-219; P29460 23-328) (Fc fusion)”, the HEK-Blue IL-12 reporter assay, fold reduction in potency (fold (vs IL-12 Fc w.t.)) was 404.
